The target in this test is Triggering receptor expressed on myeloid cell-1 (TREM-1), human (human) (UniProt Q9NP99). Briefly: cell-based or functional assay.
Chain of UniProt Q9NP99 (Q9NP99 21-234): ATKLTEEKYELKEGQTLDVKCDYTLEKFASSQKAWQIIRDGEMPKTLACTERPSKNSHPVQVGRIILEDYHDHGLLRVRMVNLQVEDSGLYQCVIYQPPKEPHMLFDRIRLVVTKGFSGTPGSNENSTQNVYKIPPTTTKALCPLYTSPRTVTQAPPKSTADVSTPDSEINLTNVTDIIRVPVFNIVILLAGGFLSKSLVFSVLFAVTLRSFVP

The substance “anti-hTREM-1 antibody (MAB1278, R&D Systems)” yielded a CSF2 (GM-CSF) mRNA induction (microarray, human monocytes) of 9.6 fold; an INHBA transcript fold change (microarray, human monocytes), confirmed at protein level by ELISA of 96.7 fold; a M-CSF transcript fold change (microarray, human monocytes), confirmed at protein level by ELISA of 22 fold; an SPP1 transcript fold change (microarray, human monocytes, 2 hours, α-TREM-1 against control antibody) of 28 fold.
